Biological target: T1, rat PLCγ1 isolated cSH2 domain (H663-E759) (rat, UniProt P10686 663-759)
T1 sequence (looked up): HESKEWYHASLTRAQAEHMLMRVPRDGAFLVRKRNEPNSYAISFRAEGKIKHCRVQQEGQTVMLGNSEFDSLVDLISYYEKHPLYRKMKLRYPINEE
Test: NMR titration

binding result: binds
B1: rat PLCγ1 isolated split PH (sPH) domain (D485-N529/N865-R936 with a C-terminal 6X-His tag) (domain or fragment, UniProt P10686 485-529, looked up)
chain: DISNSIKNGILYLEDPVNHEWYPHYFVLTSSKIYYSEETSSDQGNNSPLGDLLRGVLDVPACQIAIRPEGKNNRLFVFSISMPSVAQWSLDVAADSQEELQDWVKKIREVAQTADAR

Source: publication PMC8924901 (Journal of molecular biology, 2021)
